T1: RssB (residues 1–337), untagged (E. coli, UniProt P0AEV1 1-337)
T1 sequence (looked up): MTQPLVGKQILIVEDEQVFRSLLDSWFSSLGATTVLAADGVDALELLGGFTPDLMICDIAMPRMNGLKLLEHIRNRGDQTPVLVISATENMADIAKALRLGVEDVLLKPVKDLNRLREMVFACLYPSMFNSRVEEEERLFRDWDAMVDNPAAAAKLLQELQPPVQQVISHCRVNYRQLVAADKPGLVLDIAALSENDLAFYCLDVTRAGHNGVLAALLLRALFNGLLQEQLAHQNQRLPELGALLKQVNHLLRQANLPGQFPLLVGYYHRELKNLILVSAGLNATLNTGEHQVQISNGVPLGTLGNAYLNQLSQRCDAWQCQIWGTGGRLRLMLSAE


What was measured:
[1] = target: the molecule itself; experiment: cross-linking; 0.005% (v/v) glutaraldehyde, 35 μg of each protein, 20 mM Hepes-KOH pH 7.5, 140 mM NaCl, 10 mM MgCl2, time course; SDS-PAGE and immunodecoration (anti-His, anti-RssB or anti-σS antisera)
[2] = target: T1, RssB (residues 1–337), untagged; experiment: cell-based or functional assay

half-life of σS in RssB-mediated turnover by 1.2 µM ClpXP with 2, 5 and 15 µM SspB added (from ~2.5 min without SspB) [2] [min]	Binder	stoichiometry N [1]
	RssBN (residues 1–128), untagged (domain or fragment, E. coli, UniProt P0AEV1 1-128, looked up, RssB, E. coli, N-terminal receiver domain, residues 1-128; also called N-terminal domain of RssB; REC domain; source: Ub-fusion system, purified (IMAC, SEC)) MTQPLVGKQILIVEDEQVFRSLLDSWFSSLGATTVLAADGVDALELLGGFTPDLMICDIAMPRMNGLKLLEHIRNRGDQTPVLVISATENMADIAKALRLGVEDVLLKPVKDLNRLREMVFACLYPSM	2
~23	His6-tagged zinc binding domain (ZBD) of E. coli ClpX (domain or fragment, UniProt P0A6H1 1-60, looked up, Dimer by glutaraldehyde cross-linking; also called ClpXZBD; ecClpXZBD; source: purified ("Pure ecClpXZBD")) MTDKRKDGSGKLLYCSFCGKSQHEVRKLIAGPSVYICDECVDLCNDIIREEIKEVAPHRE	2
	RssBC (residues 131–337), untagged (domain or fragment, E. coli, UniProt P0AEV1 131-337, looked up, RssB, E. coli, C-terminal effector domain, residues 131-337; also called C-terminal domain of RssB; effector domain; source: Ub-fusion system, purified (IMAC, SEC)) SRVEEEERLFRDWDAMVDNPAAAAKLLQELQPPVQQVISHCRVNYRQLVAADKPGLVLDIAALSENDLAFYCLDVTRAGHNGVLAALLLRALFNGLLQEQLAHQNQRLPELGALLKQVNHLLRQANLPGQFPLLVGYYHRELKNLILVSAGLNATLNTGEHQVQISNGVPLGTLGNAYLNQLSQRCDAWQCQIWGTGGRLRLMLSAE	2

— paper PMC7226468, “Insight into the RssB-Mediated Recognition and Delivery of σ^s to the AAA+ Protease, ClpXP” (Biomolecules, 2020)
